These results are taken from patent US20200317768A1 (published 2020).

In test [1] the target is T1, human FcγRIIIaV extracellular domain with C-terminal His-tag (human, UniProt P08637 17-208).
T1 construct: also called FcgRIIIaV; not shown: His-tag added to the C-terminus
Put plainly: SPR (BIACORE T200/4000), antibody captured, FcγR as analyte, 25 C.

For test [2], the target named is T2, cyno FcγRIIIaS extracellular domain with C-terminal His-tag (cynomolgus monkey, UniProt A3RFZ7 21-206 (rhesus entry)).
T2 construct: also called FcgRIIIaS; not shown: His-tag added to the C-terminus
The description is as above.

A further test addresses T3, GST-hMSTN 61-160aa (human, UniProt O14793 61-160).
T3 construct: As GST-hMSTN 1-100aa; also called fourth fragment; not shown: GST tag from the pGEX4.1 vector
T3 sequence: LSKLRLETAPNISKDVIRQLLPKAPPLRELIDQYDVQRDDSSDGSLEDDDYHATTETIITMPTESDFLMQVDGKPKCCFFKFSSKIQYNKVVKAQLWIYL
Put plainly: Western blot on GST tagged fragments. An excerpt: (§1) Fragments of the N-terminal propeptide coding region of human latent myostatin were cloned into a pGEX4.1 vector so as to produce GST tagged propeptide fragments of 100 amino acid each, with 80 amino acid overlap (FIG. 22A). Protein expression was induced in transformed BL21 competent cells with Overnight Express Autoinduction System (Merck Millipore) and protein was extracted using the BUGBUSTER® protein extraction reagent (Novagen).
(In general: A western blot detects proteins with antibodies after separation by electrophoresis.)

In a further test the target is T4, GST-hMSTN 141-241aa (human, UniProt A1C2U3 141-241 (Pongo pygmaeus entry)).
T4 construct: As GST-hMSTN 1-100aa; also called eighth fragment; not shown: GST tag from the pGEX4.1 vector
T4 sequence: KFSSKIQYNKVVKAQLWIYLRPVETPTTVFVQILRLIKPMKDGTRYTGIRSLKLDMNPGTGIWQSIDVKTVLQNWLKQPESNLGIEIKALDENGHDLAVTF
The test is described as follows: Western blot on GST tagged fragments.
Source text: as §1

The target of another test is T5, GST-hMSTN 81-180aa (human, UniProt A1C2U3 81-180 (Pongo pygmaeus entry)).
T5 construct: As GST-hMSTN 1-100aa; also called fifth fragment; not shown: GST tag from the pGEX4.1 vector
T5 sequence: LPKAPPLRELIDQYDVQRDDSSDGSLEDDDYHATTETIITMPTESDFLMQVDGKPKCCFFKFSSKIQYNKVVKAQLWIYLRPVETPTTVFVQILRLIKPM
The test is described as follows: Western blot on GST tagged fragments.
Source text: as §1

In a further test the target is T6, GST-hMSTN 101-200aa (human, UniProt A1C2U3 101-200 (Pongo pygmaeus entry)).
T6 construct: As GST-hMSTN 1-100aa; also called sixth fragment; not shown: GST tag from the pGEX4.1 vector
T6 sequence: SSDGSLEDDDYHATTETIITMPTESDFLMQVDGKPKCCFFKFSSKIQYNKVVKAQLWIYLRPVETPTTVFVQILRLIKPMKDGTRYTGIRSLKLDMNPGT
Put plainly: Western blot on GST tagged fragments.
Source text: as §1

A further test addresses T7, GST-hMSTN 121-220aa (human, UniProt A1C2U3 121-220 (Pongo pygmaeus entry)).
T7 construct: As GST-hMSTN 1-100aa; also called seventh fragment; not shown: GST tag from the pGEX4.1 vector
T7 sequence: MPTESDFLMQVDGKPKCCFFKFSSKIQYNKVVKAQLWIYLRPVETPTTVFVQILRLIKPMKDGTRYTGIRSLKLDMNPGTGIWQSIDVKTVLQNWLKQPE
The test is described as follows: Western blot on GST tagged fragments.
Source text: as §1

In test [3] the target is T8, Human latent myostatin (human, UniProt O14793 25-266; O14793 267-375).
T8 construct: Biotinylated in the ELISAs; also called human myostatin latent form
T8 sequence 1: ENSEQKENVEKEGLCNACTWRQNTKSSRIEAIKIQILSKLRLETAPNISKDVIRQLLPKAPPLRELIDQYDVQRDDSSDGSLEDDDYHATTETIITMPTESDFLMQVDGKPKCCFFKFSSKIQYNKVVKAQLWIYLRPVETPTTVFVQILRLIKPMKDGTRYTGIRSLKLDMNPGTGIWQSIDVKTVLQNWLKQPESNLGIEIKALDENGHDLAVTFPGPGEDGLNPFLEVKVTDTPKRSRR
T8 sequence 2: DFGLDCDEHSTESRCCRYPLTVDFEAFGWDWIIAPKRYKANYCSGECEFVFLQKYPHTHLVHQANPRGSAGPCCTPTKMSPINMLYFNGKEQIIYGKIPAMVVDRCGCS
The test is described as follows: SPR (BIACORE), additional dissociation phase at pH5.8 after dissociation at pH7.4. The protocol: (§2) Each amino acid in the CDRs was individually mutated to histidine using In-Fusion HD Cloning Kit (Clontech Inc, or Takara Bio company) according to the manufacturer's instructions. […] All histidine-substituted variants were evaluated by a modified BIACORE® assay as compared to that described above. Briefly, an additional dissociation phase at pH5.8 was integrated into the BIACORE® assay immediately after the dissociation phase at pH7.4. This is to assess the pH-dependent dissociation between antibody (Ab) and antigen (Ag) from the complexes formed at pH7.4 as opposed to the corresponding dissociation at pH5.8. The dissociation rate at pH5.8 buffer was determined by processing and fitting data using the Scrubber 2.0 (BioLogic Software) curve fitting software.
(§3) Antibodies with a combination of these mutations in the CDRs were then generated.
In general terms: In SPR one partner is held on a chip, and binding of the other changes the refractive index at the surface.

Test [4] has as its target T8, Human latent myostatin. The test is described as follows: SPR (BIACORE), additional dissociation phase at pH5.8 after dissociation at pH7.4, Scrubber 2.0 fit. How it is done: as §2, §3

T2 sequence (A3RFZ7 21-206): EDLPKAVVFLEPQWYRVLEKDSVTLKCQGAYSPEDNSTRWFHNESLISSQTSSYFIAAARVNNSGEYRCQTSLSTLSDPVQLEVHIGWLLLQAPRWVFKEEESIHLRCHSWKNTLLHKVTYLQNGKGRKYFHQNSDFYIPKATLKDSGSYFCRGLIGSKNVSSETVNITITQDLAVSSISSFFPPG
T1 sequence (P08637 17-208 F176V): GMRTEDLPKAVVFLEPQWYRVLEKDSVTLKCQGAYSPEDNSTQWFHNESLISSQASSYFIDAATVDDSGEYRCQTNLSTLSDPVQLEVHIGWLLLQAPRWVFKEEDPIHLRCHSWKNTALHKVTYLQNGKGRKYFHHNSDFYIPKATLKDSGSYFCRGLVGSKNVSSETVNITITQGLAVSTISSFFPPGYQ

B1: M103205H795-MY009/M103202L889-SK1 (antibody, human IgG1, kappa)
heavy: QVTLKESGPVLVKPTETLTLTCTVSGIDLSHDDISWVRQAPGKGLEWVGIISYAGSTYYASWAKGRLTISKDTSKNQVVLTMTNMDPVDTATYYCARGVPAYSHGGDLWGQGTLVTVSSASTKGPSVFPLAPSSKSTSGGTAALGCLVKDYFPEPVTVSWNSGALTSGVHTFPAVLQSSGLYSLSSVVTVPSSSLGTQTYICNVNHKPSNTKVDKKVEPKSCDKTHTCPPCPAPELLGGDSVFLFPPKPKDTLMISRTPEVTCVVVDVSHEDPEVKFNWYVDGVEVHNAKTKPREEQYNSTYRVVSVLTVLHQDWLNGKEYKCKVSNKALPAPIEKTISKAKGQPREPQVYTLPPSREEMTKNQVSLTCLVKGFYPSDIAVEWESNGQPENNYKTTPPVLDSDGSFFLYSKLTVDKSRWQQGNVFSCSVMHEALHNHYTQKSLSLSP
light: DIVMTQSPATLSLSPGERATLSCTSSQSVYHANWLSWFQQKPGQPPKLLIYWASTLAYGVPSRFSGSGSGTDFTLTISSLQPEDAATYYCAGGYGGGRYAFGQGTKVEIKRTVAAPSVFIFPPSDEQLKSGTASVVCLLNNFYPREAKVQWKVDNALQSGNSQESVTEQDSKDSTYSLSSTLTLSKADYEKHKVYACEVTHQGLSSPVTKSFNRGEC
notes: SG1 with P238D (EU numbering); also called MS1032LO06-MY009; MS1032LO006-MY009
With B1, the binding result in test [1] and in test [2] was “binds” throughout.

B2: MST1572 (antibody, human IgG1, kappa, V domains shown)
VH: QSVEESGGRLVTPGTPLTLTCTVSGFSLSSYAMSWVRQAPGKGLEWIGIIYGVGSTYYASWAKGRFTISKTSTTVDLKIASPTTEDTATYFCARDDYGWGYTNLWGPGTLVTVSS
VL: QVLTQTPSSVSAAVGGTVTINCQSSQSVYNNNYLAWFQQKPGQPPKLLIYDASKLASGVPSRFKGSGSGTQFTLTISGVQCDDAATYYCQGSYYSSGWYRAFGGGTKVEIKR
With B2, the binding result with GST-hMSTN 61-160aa, with GST-hMSTN 141-241aa, with GST-hMSTN 81-180aa, in the test with GST-hMSTN 101-200aa and in the test with GST-hMSTN 121-220aa was “no binding” in each case.

B3: MST1538 (antibody, human IgG1, kappa, V domains shown)
VH: QSLEESGGGLVKPGGTLTLTCKASGIDFSSYYYMCWVRQAPGKGLEWIACIYAGISGSTYYASWAKGRFTISKTSSTTVTLQMTSLTAADTATYFCARDPYHFDYGSLWGPGTLVTVSS
VL: ALVMTQTPASVSAAVGGTVTINCQASQSVYGGNELSWYQQEPGQPPKLLIYSASKLASGVPSRFKGSGSGTQFTLTISGVQCDDAAAYYCAGYRTYSDDDNAFGGGTKVEIKR
As to B3, the binding result in the test with GST-hMSTN 61-160aa, in the test with GST-hMSTN 141-241aa, with GST-hMSTN 81-180aa, with GST-hMSTN 101-200aa and with GST-hMSTN 121-220aa was “no binding” throughout.

B4: Ab002 (M103205H001 / M103202L000) (antibody, human IgG1, kappa, V domains shown)
VH: QVTLKESGPVLVKPTETLTLTCTVSGIDLSHYDISWVRQAPGKGLEWVGIISYAGSTYYASWAKGRLTISKDTSKNQVVLTMTNMDPVDTATYYCARGVPAYSTGGDLWGQGTLVTVSS
VL: DIVMTQSPATLSLSPGERATLSCQSSQSVYDNNWLSWFQQKPGQPPKLLIYWASTLASGVPSRFSGSGSGTDFTLTISSLQPEDAATYYCAGGYGGGLYAFGQGTKVEIKR
notes: Histidine-substituted variant of MS1032LO00-SG1
Usually koff stands for a measure of how fast the partners let go of each other. For the molecule B4, the “fold faster dissociation rate at pH5.8 than the parental antibody Ab001” value with Human latent myostatin [3] is greater than 200 fold. Besides, the koff with Human latent myostatin [4] stood at 0.00609 s⁻¹.
